The substances below were run against Vin1^1-116-mScI (UniProt P36158) (assay: subcellular recruitment assay (fluorescence microscopy, puncta quantification)). Settings: vrl1 vin1Δ cells; over-expressed Vrl1(1-703)YPE chimera; pVIN1(1-116)-mScI; n=3, cells/strain/replicate ≥863; parent: est. 0.82; read off a plot.
UniProt P36158, sequence (P36158 1-116): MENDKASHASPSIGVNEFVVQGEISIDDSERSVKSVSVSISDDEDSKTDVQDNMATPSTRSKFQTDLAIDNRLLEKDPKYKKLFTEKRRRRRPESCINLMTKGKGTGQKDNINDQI
“Vrl1(1-703)^YPE (from UniProt P38815) E504A; E510A; D511A; N546A; E551A” gave an other: Average Bright Vin1(1-116)-mScI Puncta Per Cell (puncta per cell) of 0.075.
Substance “Vrl1(1-703)^YPE (from UniProt P38815) D511K” has an other: Average Bright Vin1(1-116)-mScI Puncta Per Cell (puncta per cell) of 0.14.
“Vrl1(1-703)^YPE (from UniProt P38815) E510R” showed an other: Average Bright Vin1(1-116)-mScI Puncta Per Cell (puncta per cell) of 0.04.
